According to patent US20220010310A1, “An lncRNA integrates a DNA-PK-mediated DNA damage response and vascular senescence” (The Brigham and Women`s Hospital, Inc., priority 2018, published 2022):

Target: purified DNA-PK protein (Homo sapiens, UniProt P78527)
Assay: DNA-PK kinase activity, ATP to ADP conversion (luminescence)
Format: biochemical
Conditions: 10 pmol transcript, ATP 150 μM
Text: FIGS. 9A-I. Identification of DNA-PK as an SNHG12 interactor. (A) Illustration of lncRNA pulldown using nuclear protein extract from HUVECs for in vitro transcribed biotin-labeled SNHG12 or negative control LacZ followed by streptavidin beads pulldown. Protein eluate was sent for MS. (B) Protein hits for SNHG12 (n=2, two technical replicates each). (C) LncRNA pulldown of biotin-labeled SNHG12 compared to negative controls LacZ and antisense transcript for SNHG12 (n=3). (D) RT-qPCR analysis for intravenous delivery of biotinylated SNHG12 to the aorta (n=4 per group). P value was determined by Student's t test. […] P value was determined by Student's t test. (H) Purified DNA-PK protein was incubated with in vitro transcribed LacZ or SNHG12 transcript (10 pmol) together with ATP (150 μM) and luminescence was measured for detecting conversion to ADP. […] P value was determined by Student's t test. (I) DNA-PK protein was incubated for 1 hr with the DNA-PK kinase inhibitor NU7441 (1, 10, 100 μM) to assess DNA-PK kinase activity by luminescence (n=1). […]
To identify the functional consequences of the interaction of SNHG12 with DNA-PK, we assessed the effect of SNHG12 on DNA-PK's kinase activity (DNA-PKcs). Incubation of purified DNA-PK protein with in vitro transcribed SNHG12 assessed the ability of DNA-PKcs to convert ATP to ADP. […]

B1: SNHG12: T7 in vitro transcribed SNHG12 lncRNA transcript used in MST and DNA-PK kinase assays (nucleic acid, listed as Homo sapiens)
chain: TCTAGAGCTAGCGAATTCCTTTCTCCCCGCCGCATTCCCGGTGTCGACTTACTAGCTGCAAGCCTCTGCCTGCCTTCCTGCGCGCCGTTCCCCGCTAGTCGCTGCTGCTGGCGCGCACTCGCCGGGTTTTTCCTCCCACGGCCTCGAGATGGTGGTGAATGTGGCACGGAGGAGCCGGGCCTTCCAACCCGGTGGGCCCGAGCTCCGAAAGGCCCCCTCGGCAGTGAGAGGGGCGGGAGCCCGCGGGGGCCGCGCCCTTCTCTCGCTTCGGACTGCGCAACGCTGCGCTCTGGGCTGACAGGCGGATAAAACGGTCCCATCAAGACTGAGAAAAAGCACACCAGCTATTGGCACAGCGTGGGCAGTGGGGCCTACAGGATGACTGACTTAGTCTACAGAGATCCCGGCGTACTTAAGCAGATGAAGACTCTTAAGATGACAGAAGGTGATTTTTCTGGTGATCGAGGACTTCCGGGGTAATGACAGTGATGAAATGCAGGGGACCTGGTTGCCCCCAAGTTTCCTGGCAGTGTGTGATACTGAGGAGGTGAGCTTGTTTCTGGAGCTGTGCTTTAAGGTAAAGTTGATCAGCTTAATCCTCCTGATCCCTTTCCCATCGGATCTGAACACTGGTCTTGGTGGTCGTAAAAGGAGGAAAAGTAATAGTGAAGCTGGCCTAAATGTTGTAATCTGGTATATGGCATGTGGGCTAGTTTCAGACAGGTTTCAGAGATGGTTGGATCTCTGAAATTGTAAAATGAAGTATAATCTTAGGCTAAGGGAAGGATGCGTGTGAAGCTCTGGAGGTTGGTATAGTAATAGCTGACCTATTACTGCATTTGGGAGGGATCTGTCATAGCTTCCTTGCCTCTTAATTAAGGGTGGTGTTTTTTTCTTTTAGATTCATGTTACATGTAAAGCTGTCCTCATTTGTGACTATGGACCTATGGAGTTGGGACAATCTCTATGGGAAGCAGAAGGCAAGGACCCCGGTCATTTTAGGTAGAAACAACAGCATGCTAATGCAAAAAATTATGCAGTGTGCTACTGAACTTCAGAGGTGATCAATAAAAGAAGAATAAAAAGACTAATAAAAGTAGAATTCTGATCAGGATCC
increase of DNA-PKcs kinase activity compared to the LacZ control: 2 fold
